We go through 2 molecules from paper PMC10397247.

Assay [1] deals with T1, 4H462-bH.
T1 chain: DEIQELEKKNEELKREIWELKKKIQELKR
Put plainly: two-hybrid library CCNG1.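 Note: natural log of median RNA to DNA barcode read ratio; higher means stronger binding.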

Assay [2] addresses T2, 4H568-bH.
T2 chain: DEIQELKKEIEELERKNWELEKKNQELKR
Put plainly: two-hybrid library CCNG1.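 Note: natural log of median RNA to DNA barcode read ratio; higher means stronger binding.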

The target of assay [3] is T3, 4H607-bH.
T3 chain: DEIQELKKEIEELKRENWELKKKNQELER
Put plainly: two-hybrid library CCNG1.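 Note: natural log of median RNA to DNA barcode read ratio; higher means stronger binding.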

Assay [4] has as its target T4, 4H687-bH.
T4 chain: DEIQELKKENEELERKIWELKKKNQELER
Put plainly: two-hybrid library CCNG1.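 Note: natural log of median RNA to DNA barcode read ratio; higher means stronger binding.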

Assay [5] deals with T5, 4H72-bH.
T5 chain: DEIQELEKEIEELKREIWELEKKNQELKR
Put plainly: two-hybrid library CCNG1.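 Note: natural log of median RNA to DNA barcode read ratio; higher means stronger binding.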

Assay [6] deals with T6, 4H797-bH.
T6 chain: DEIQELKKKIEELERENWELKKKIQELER
Put plainly: two-hybrid library CCNG1.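 Note: natural log of median RNA to DNA barcode read ratio; higher means stronger binding.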

Assay [7] has as its target T7, 4H883-bH.
T7 chain: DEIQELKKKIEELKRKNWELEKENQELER
Put plainly: two-hybrid library CCNG1.

Assay [8] has as its target T8, 4H906-bN.
T8 chain: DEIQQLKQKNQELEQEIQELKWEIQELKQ
Put plainly: two-hybrid library CCNG1.

For assay [9], the target named is T9, 4H918-bH.
T9 chain: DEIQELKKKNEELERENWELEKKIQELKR
Put plainly: two-hybrid library CCNG1.

The target of assay [10] is T10, 4H953-bH.
T10 chain: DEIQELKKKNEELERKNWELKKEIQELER
Put plainly: two-hybrid library CCNG1.

Assay [11] addresses T11, 4H967-bH.
T11 chain: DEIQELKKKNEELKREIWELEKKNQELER
Put plainly: two-hybrid library CCNG1.

Assay [12] addresses T12, 4H2648-AA.
T12 chain: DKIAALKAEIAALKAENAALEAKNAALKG
Put plainly: two-hybrid library CCmax.

The target in assay [13] is T13, 4H2907-AA.
T13 chain: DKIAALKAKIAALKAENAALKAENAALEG
Put plainly: two-hybrid library CCmax. As to conditions: mean of both orientations.

Assay [14] has as its target T14, 4H3056-AA.
T14 chain: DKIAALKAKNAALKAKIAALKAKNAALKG
Put plainly: two-hybrid library CCmax. The following applies: mean of both orientations.

Assay [15] deals with T15, 4H3133-AA.
T15 chain: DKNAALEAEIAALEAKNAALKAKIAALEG
Put plainly: two-hybrid library CCmax. As to conditions: mean of both orientations.

Assay [16] addresses T16, 4H3162-AA.
T16 chain: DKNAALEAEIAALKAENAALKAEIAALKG
Put plainly: two-hybrid library CCmax. As to conditions: mean of both orientations.

The target of assay [17] is T17, 4H32-AA.
T17 chain: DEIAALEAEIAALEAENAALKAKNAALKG
Put plainly: two-hybrid library CCmax. The following applies: mean of both orientations.

Assay [18] has as its target T18, 4H3378-AA.
T18 chain: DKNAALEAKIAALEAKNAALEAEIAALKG
Put plainly: two-hybrid library CCmax. The following applies: mean of both orientations.

In assay [19] the target is T19, 4H340-AA.
T19 chain: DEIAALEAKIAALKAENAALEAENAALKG
Put plainly: two-hybrid library CCmax. As to conditions: mean of both orientations.

Assay [20] addresses T20, 4H3413-AA.
T20 chain: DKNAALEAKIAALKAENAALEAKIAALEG
Put plainly: two-hybrid library CCmax. As to conditions: mean of both orientations.

Assay [21] deals with T21, 4H3588-AA.
T21 chain: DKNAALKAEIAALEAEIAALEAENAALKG
Put plainly: two-hybrid library CCmax. The following applies: mean of both orientations.

Assay [22] deals with T22, 4H3606-AA.
T22 chain: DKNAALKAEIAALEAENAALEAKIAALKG
Put plainly: two-hybrid library CCmax. As to conditions: mean of both orientations.

Assay [23] concerns the target T23, 4H3631-AA.
T23 chain: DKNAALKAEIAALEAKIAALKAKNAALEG
Put plainly: two-hybrid library CCmax. The following applies: mean of both orientations.

Assay [24] addresses T24, 4H3697-AA.
T24 chain: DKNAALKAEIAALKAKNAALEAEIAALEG
Put plainly: two-hybrid library CCmax. The following applies: mean of both orientations.

Assay [25] deals with T25, 4H3718-AA.
T25 chain: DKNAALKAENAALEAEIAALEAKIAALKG
Put plainly: two-hybrid library CCmax. As to conditions: mean of both orientations.

Assay [26] addresses T26, 4H384-AA.
T26 chain: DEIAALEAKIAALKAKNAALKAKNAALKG
Put plainly: two-hybrid library CCmax. The following applies: mean of both orientations.

Assay [27] has as its target T27, 4H3865-AA.
T27 chain: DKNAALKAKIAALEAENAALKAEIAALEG
Put plainly: two-hybrid library CCmax. The following applies: mean of both orientations.

Assay [28] addresses T28, 4H697-AA.
T28 chain: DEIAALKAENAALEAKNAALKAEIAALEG
Put plainly: two-hybrid library CCmax. As to conditions: mean of both orientations.

In assay [29] the target is T29, 4H982-AA.
T29 chain: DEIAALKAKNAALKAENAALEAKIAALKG
Put plainly: two-hybrid library CCmax. The following applies: mean of both orientations.

DEIQELEKKNEELKREIWELKKKIQELKR [4H462-bH]: the interaction score in assay [1] was 0.452; in [2] it was 0.229; in assay [3], -0.483; in assay [4], 1.31; in assay [5] it was 0.335; in assay [6] it was -0.33. In addition, the interaction score in assay [7] is -0.231; in assay [8] it was -2.48; in assay [9], 0.264; in [10], -0.0754; in assay [11], -0.847.

Consider DKIAALKAEIAALKAENAALEAKNAALKG [4H2648-AA], for which the interaction score was 0.455 in [12]; 1.45 in assay [13]; -1.84 in [14]; -0.651 in [15]; -1.38 in assay [16]; 1.9 in assay [17]. The interaction score in [18] was -1.8; in assay [19], 1.21; in assay [20], -1.8; in assay [21] it was 0.769; in assay [22] it was -1.35; in assay [23] it was -0.735. In addition, the interaction score was -1.06 in [24]; -1.35 in assay [25]; 1.28 in assay [26]; -1.49 in assay [27]; -1.14 in assay [28]; -0.309 in assay [29].
